Test results reported in paper PMC12381214 (2025).
Where a chain is given by its changes, count along the chain named. Names and notes keep the numbering of the source.

B1: human Izumo1 ectodomain E71A (Izumo1E71A-His10-SpyTag-LPETGG) (domain or fragment)
chain: CVICDPSVVLALKSLEKDYLPGHLDAKHHKAMMERVENAVKDFQELSLNADAYMGVVDEATLQKGSWSLLKDLKRITDSDVKGDLFVKELFWMLHLQKETFATYVARFQKEAYCPNKCGVMLQTLIWCKNCKKEVHACRKSYDCGERNVEVPQMEDMILDCELNWHQASEGLTDYSFYRVWGNNTETLVSKGKEATLTKPMVGPEDAGSYRCELGSVNSSPATIINFHVTVLP
modifications: glycosylated (sites not given); SpyTag joined by an isopeptide bond to a SpyCatcher polyprotein
B2: human Izumo1 ectodomain H157A (Izumo1H157A-His10-SpyTag-LPETGG) (domain or fragment)
chain: B1 chain with A50E, H136A
modifications: glycosylated (sites not given); SpyTag joined by an isopeptide bond to a SpyCatcher polyprotein
B3: human Izumo1 ectodomain R160A (Izumo1R160A-His10-SpyTag-LPETGG) (domain or fragment)
chain: B1 chain with A50E, R139A
modifications: glycosylated (sites not given); SpyTag joined by an isopeptide bond to a SpyCatcher polyprotein

What follows are binders tested against human Juno ectodomain, wild type (Juno-His10-SpyTag-LPETGG) (human, glycosylated (sites not given); SpyTag joined by an isopeptide bond to a SpyCatcher polyprotein) (assay: FACS).
Sequence of human Juno ectodomain, wild type (Juno-His10-SpyTag-LPETGG) (human, glycosylated (sites not given); SpyTag joined by an isopeptide bond to a SpyCatcher polyprotein) (chain, as listed by the source): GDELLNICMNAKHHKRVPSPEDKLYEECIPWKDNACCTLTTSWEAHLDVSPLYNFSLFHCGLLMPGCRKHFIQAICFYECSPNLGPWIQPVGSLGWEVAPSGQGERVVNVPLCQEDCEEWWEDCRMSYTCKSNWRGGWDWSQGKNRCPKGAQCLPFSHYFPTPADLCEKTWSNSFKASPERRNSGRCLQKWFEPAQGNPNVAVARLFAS

Kd | Binder
0.043 µM | B1
0.243 µM | B2
0.157 µM | B3
